Drawing on publication PMC8542614, this text covers Kd, dH and stoichiometry N for one molecule.

Where “and” joins values, the source holds several entries; their conditions need not be identical. Identical values can stand only once. Like-named read-outs stand apart in the source and are kept apart here.

Experiment [1] deals with HCV E2 ectodomain (eE2), full length, residues 384-656, genotype J6 (HCV genotype J6). In words: ITC. For orientation: In ITC the heat of successive injections is recorded.
Experiment [2] has the same target. In words: ITC. The source holds these as a separate data set.

B1: human CD81 large extracellular loop (hCD81-LEL), residues 112-202 (domain or fragment)
chain: GFVNKDQIAKDVKQFYDQALQQAVVDDDANNAKAVVKTFHETLDCCGSSTLTALTTSVLKNNLCPSGSNIISNLFKEDCHQKIDDLFSGKL
For the molecule B1, the dissociation constant (Kd) in experiment [1] was determined as 773 nM. Also, in experiment [2], the dissociation constant Kd came out at 681 nM; the dH was -7.89 kcal/mol and -6.65 kcal/mol; the stoichiometry N was 0.99 and 0.86.

The Kd is the constant that tells how readily two partners part at equilibrium. As a reminder, the stoichiometry N is the number of molecules, sites or subunits per partner or assembly.
